Reference: publication doi:10.1101/2020.06.02.126235

Molecular target: AAV2 OBD (Adeno-associated virus 2, UniProt P03132 1-199)
Experiment: X-ray crystallography

AAV2 OBD, sequence (P03132 1-199): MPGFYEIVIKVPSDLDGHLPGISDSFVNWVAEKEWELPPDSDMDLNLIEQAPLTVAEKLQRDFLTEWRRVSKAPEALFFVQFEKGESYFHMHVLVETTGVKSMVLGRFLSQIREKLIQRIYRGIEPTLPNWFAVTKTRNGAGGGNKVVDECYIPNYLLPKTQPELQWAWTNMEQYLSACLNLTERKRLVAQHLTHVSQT

ATATGCTCGCTCTT (ssDNA) [ssRBS 14-mer (Site A)]
binding result: binds
